Read-outs that look alike come from different tables or passages of the source. PLA = 3-phenyllactic acid (2-hydroxy-3-phenylpropanoic acid)
Tests used:
glucagon receptor [1] = target: glucagon receptor (UniProt P47871); experiment: cell-based or functional assay
glucagon receptor [2] = target: glucagon receptor (UniProt P47871); experiment: cell-based or functional assay; remark: listed apart in the source
GLP-1 receptor [3] = target: GLP-1 receptor (UniProt P43220); experiment: cell-based or functional assay
Sequence of GLP-1 receptor (P43220 24-463 limits assumed): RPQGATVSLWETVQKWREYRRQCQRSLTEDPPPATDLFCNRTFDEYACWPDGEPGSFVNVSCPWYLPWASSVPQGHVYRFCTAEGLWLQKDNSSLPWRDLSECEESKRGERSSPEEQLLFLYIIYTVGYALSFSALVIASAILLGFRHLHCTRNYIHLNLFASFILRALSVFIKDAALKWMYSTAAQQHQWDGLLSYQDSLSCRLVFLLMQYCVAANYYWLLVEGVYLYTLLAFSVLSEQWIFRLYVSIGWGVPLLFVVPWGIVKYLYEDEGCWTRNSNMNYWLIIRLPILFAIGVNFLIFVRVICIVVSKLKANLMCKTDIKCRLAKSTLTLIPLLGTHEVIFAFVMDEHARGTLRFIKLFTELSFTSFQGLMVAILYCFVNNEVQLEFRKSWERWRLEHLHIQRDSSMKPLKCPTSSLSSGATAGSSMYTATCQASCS

GLP-1 receptor [4] = target: GLP-1 receptor (UniProt P43220); experiment: cell-based or functional assay; remark: listed apart in the source
[5] = target: glucagon receptor, P47871; experiment: cell-based or functional assay
Sequence of glucagon receptor, P47871 (P47871 26-477 limits assumed): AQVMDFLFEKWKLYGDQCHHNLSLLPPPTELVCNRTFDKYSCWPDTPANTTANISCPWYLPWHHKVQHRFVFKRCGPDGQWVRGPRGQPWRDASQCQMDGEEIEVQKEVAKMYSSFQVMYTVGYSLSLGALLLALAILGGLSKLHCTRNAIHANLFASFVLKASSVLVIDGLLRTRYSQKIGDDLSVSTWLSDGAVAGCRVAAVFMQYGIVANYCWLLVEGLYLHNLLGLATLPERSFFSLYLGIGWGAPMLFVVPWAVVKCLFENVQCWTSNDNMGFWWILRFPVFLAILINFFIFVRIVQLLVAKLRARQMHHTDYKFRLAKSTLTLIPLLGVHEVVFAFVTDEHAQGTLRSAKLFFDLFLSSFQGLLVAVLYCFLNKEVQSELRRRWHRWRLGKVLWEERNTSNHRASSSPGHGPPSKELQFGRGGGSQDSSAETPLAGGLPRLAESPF

[6] = target: glucagon receptor, P47871; experiment: receptor binding, method not described

Sequence of glucagon receptor (P47871 26-477 limits assumed): as above

| Binder | Glucagon IC50 (glucagon receptor [1]) | Glu IC50 (glucagon receptor [2]) | GLP-1 (EC50) (GLP-1 receptor [3]) | GLP-1 (EC50) (GLP-1 receptor [4]) | IC50(nM) (cAMP, inhibit Glucagon) 0.1 nM or 0.2 nM [5] | IC50 [6] |
| --- | --- | --- | --- | --- | --- | --- |
| FTSEYSKYLDERRAQDFVQWLMNTGPSSGAPPPS [Glucagon (6-CEX) analog E9, K12, E16] | 762 nM | 762 nM |  |  |  |  |
| FTSEYSKYLDERRAQDFVQWLMNTGPSSGAPPPS (lactam between K12 and E16 (glucagon numbering)) [Glucagon (6-CEX) analog E9, K12E16 (lactam)] | 2010 nM | 2010 nM | 63 nM |  |  |  |
| FTSEYSKYLDERRAKDFVQWLMNTGPSSGAPPPS (lactam between E16 and K20 (glucagon numbering)) [Glucagon (6-CEX) analog E9, E16K20 (lactam)] | 42 nM | 42 nM | 36 nM |  |  |  |
| FTSDYSKYLDERRAQDFVQWLMNTGPSSGAPPPS (lactam between K12 and E16 (glucagon numbering)) [Glucagon (6-CEX) analog D9, K12E16 (Lactam)] | 828 nM | 828 nM | 119 nM | 18 nM |  |  |
| {PLA}-TSEYSKYLDSRRAQDFVQWLMNTGPSSGAPPPS-NH2 [[PLA6, E9]Glucagon (aa6-29 + CEX)-NH2] |  |  |  |  | 24.8 nM | 40.3 nM |
| TSEYSKYLDERRAQDFVQWLMNTGPSSGAPPPS (PLA at position 6, N-terminal to the letters given; lactam between K12 and E16 (glucagon numbering)) [[PLA6, E9, K12E16 (Lactam)] glucagon (6-CEX) analog] | 72 nM | 72 nM | 6 nM |  |  |  |

Reference: patent US20120322725A1
